# Laboratory results published in PMC9482650, “Quantitative fragmentomics allow affinity mapping of interactomes” (Nature Communications, 2022).
# T1: MPDZ_10, O75970
# T1 sequence (O75970 1624-1722, limits assumed, looked up): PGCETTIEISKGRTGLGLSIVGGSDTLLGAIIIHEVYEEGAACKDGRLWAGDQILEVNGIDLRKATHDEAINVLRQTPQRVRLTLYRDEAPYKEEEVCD
# T2: SNTB1, Q13884
# T2 sequence (Q13884 107-205, limits assumed, looked up): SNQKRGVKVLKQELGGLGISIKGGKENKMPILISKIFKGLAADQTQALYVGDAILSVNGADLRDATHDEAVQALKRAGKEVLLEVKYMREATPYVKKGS
# T3: DFNB31_3, Q9P202
# T3 sequence (Q9P202 811-907, limits assumed, looked up): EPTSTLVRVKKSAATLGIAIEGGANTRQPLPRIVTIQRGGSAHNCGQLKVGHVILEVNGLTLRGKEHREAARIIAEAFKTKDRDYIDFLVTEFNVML
# T4: ARHGEF11, O15085
# T4 sequence (O15085 42-136, limits assumed, looked up): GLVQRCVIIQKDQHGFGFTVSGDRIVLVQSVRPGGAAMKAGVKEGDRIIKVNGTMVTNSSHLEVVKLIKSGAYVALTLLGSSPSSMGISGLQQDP
# T5: SIPA1L2, Q9P2F8
# T5 sequence (Q9P2F8 945-1036, limits assumed, looked up): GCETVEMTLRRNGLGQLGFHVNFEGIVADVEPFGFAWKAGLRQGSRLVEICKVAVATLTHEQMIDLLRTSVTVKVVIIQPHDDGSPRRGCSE
# T6: NHERF3_4, Q5T2W1
# T6 sequence (Q5T2W1 373-468, limits assumed, looked up): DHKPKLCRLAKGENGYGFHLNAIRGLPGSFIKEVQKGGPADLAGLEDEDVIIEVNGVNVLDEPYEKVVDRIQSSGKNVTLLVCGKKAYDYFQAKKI
# T7: PCLO, Q9Y6V0
# T7 sequence (Q9Y6V0 4491-4600, limits assumed, looked up): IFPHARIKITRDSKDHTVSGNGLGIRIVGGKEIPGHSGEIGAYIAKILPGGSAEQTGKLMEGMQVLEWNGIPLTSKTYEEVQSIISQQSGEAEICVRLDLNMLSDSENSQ
# T8: GRIP1_2, Q9Y3R0
# T8 sequence (Q9Y3R0 145-248, limits assumed, looked up): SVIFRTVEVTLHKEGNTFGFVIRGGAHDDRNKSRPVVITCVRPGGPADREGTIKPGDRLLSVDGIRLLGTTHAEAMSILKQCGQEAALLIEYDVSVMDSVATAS
# T9: GRIP1_7, Q9Y3R0
# T9 sequence (Q9Y3R0 999-1096, limits assumed, looked up): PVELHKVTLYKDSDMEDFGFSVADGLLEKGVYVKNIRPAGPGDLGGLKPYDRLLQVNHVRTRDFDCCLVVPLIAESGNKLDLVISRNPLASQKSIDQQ
# T10: ARHGAP21, Q5T5U3
# T10 sequence (Q5T5U3 45-169, limits assumed, looked up): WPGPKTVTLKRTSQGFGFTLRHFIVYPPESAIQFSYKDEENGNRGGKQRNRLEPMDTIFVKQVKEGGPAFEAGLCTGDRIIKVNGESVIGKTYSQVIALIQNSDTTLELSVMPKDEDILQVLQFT
# T11: MPDZ_12, O75970
# T11 sequence (O75970 1857-1958, limits assumed, looked up): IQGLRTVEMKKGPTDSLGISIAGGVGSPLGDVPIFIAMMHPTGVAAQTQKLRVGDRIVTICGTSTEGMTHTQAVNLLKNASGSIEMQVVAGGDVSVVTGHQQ
# T12: PARD3B_1, Q8TEW8
# T12 sequence (Q8TEW8 196-299, limits assumed, looked up): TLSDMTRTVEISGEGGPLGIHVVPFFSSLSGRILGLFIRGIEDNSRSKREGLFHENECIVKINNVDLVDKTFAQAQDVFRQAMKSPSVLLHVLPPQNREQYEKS
# T13: LNX2_3, Q8N448
# T13 sequence (Q8N448 463-564, limits assumed, looked up): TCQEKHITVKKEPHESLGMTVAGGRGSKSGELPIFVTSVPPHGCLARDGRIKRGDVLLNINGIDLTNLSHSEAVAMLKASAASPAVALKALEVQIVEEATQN
# B1: FZD2, Q14332 (peptide)
# chain: TNSRHGETTV
# B2: KARS1, Q15046 (peptide)
# chain: LESTTVGTSV
# B3: PRR16, Q569H4 (peptide)
# chain: ILRKSTTTTV
# Key:
# Experiment in all cases: holdup assay
# Set-up in all cases: key: below the threshold = too weak to quantify, mostly under pKd 3.1 to 4
# Details in all cases: plain residues with an end cap or a label only (N-terminal biotin on a linker: ado-ado)
# [1] = target: MAGI2_6, Q86UL8
# [2] = target: T1, MPDZ_10, O75970
# [3] = target: T2, SNTB1, Q13884
# [4] = target: LNX1_3, Q8TBB1
# [5] = target: LAP2, Q96RT1
# [6] = target: T3, DFNB31_3, Q9P202
# [7] = target: T4, ARHGEF11, O15085
# [8] = target: T5, SIPA1L2, Q9P2F8
# [9] = target: T6, NHERF3_4, Q5T2W1
# [10] = target: FRMPD2_1, Q68DX3
# [11] = target: T7, PCLO, Q9Y6V0
# [12] = target: T8, GRIP1_2, Q9Y3R0
# [13] = target: T9, GRIP1_7, Q9Y3R0
# [14] = target: T10, ARHGAP21, Q5T5U3
# [15] = target: DLG4_2, P78352
# [16] = target: T11, MPDZ_12, O75970
# [17] = target: T12, PARD3B_1, Q8TEW8
# [18] = target: Inadl_3, Q8NI35
# [19] = target: IL16_4, Q14005
# [20] = target: MAST1, Q9Y2H9
# [21] = target: MAGI2_3, Q86UL8
# [22] = target: GRIP2_5, Q9C0E4
# [23] = target: IL16_3, Q14005
# [24] = target: T13, LNX2_3, Q8N448
# Chain of DLG4_2, P78352 (P78352 155-259): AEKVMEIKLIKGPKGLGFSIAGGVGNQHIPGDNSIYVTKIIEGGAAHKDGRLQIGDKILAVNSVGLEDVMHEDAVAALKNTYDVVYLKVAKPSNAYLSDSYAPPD
# Chain of MAGI2_3, Q86UL8 (Q86UL8 600-682): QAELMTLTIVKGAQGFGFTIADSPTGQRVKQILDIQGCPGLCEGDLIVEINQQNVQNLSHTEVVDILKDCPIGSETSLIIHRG
# Chain of Inadl_3, Q8NI35 (Q8NI35 359-469): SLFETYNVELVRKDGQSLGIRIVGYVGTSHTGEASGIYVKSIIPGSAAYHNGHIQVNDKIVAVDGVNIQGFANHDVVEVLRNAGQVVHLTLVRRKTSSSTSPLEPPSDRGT
# Chain of IL16_3, Q14005 (Q14005 1107-1207): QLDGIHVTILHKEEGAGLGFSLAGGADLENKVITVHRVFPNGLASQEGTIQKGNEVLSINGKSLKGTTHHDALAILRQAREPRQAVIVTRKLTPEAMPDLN
# Chain of MAST1, Q9Y2H9 (Q9Y2H9 962-1065): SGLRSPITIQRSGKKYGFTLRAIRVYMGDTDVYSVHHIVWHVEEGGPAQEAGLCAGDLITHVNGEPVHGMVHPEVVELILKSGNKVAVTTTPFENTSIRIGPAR
# Chain of FRMPD2_1, Q68DX3 (Q68DX3 770-861): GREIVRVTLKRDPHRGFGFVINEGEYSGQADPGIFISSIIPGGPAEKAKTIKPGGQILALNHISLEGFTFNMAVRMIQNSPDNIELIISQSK
# Chain of IL16_4, Q14005 (Q14005 1229-1329): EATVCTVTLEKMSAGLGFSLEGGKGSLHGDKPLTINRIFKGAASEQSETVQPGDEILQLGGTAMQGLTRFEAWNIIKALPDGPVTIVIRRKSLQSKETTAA
# Chain of LAP2, Q96RT1 (Q96RT1 other isoform, or with tags, fused parts or gaps): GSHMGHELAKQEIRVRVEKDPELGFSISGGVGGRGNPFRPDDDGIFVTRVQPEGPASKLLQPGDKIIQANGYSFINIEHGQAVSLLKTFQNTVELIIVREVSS
# Chain of LNX1_3, Q8TBB1 (Q8TBB1 500-596): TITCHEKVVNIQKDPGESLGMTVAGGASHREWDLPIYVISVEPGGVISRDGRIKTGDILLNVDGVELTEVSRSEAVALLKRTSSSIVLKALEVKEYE
# Chain of GRIP2_5, Q9C0E4 (Q9C0E4 544-642): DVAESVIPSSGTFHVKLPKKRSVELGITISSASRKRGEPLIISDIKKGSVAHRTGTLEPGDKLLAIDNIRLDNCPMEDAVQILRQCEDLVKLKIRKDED
# Chain of MAGI2_6, Q86UL8 (Q86UL8 1141-1229): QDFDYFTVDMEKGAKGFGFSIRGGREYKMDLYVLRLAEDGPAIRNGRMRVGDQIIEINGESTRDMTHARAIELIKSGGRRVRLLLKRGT
Binder,pKd [1],pKd [2],pKd [3],pKd [4],pKd [5],pKd [6],pKd [7],pKd [8],pKd [9],pKd [10],pKd [11],pKd [12],pKd [13],pKd [14],pKd [15],pKd [16],pKd [17],pKd [18],pKd [19],pKd [20],also measured
B1,4.26,below the threshold,4.75,below the threshold,4.02,below the threshold,4.07,below the threshold,below the threshold,3.6,below the threshold,below the threshold,below the threshold,4.04,4.92,below the threshold,below the threshold,3.51,below the threshold,below the threshold,pKd [21]: 3.53; pKd [22]: below the threshold; pKd [23]: below the threshold; pKd [24]: below the threshold
B2,4.32,3.72,3.85,below the threshold,3.92,below the threshold,4.04,below the threshold,below the threshold,below the threshold,below the threshold,below the threshold,below the threshold,below the threshold,4.35,3.62,below the threshold,below the threshold,below the threshold,4.53,pKd [21]: 3.73; pKd [22]: below the threshold; pKd [23]: below the threshold; pKd [24]: below the threshold
B3,below the threshold,below the threshold,3.85,below the threshold,below the threshold,below the threshold,4.04,below the threshold,below the threshold,below the threshold,below the threshold,below the threshold,below the threshold,3.92,5.2,below the threshold,below the threshold,below the threshold,3.54,4.29,pKd [21]: 3.74; pKd [22]: below the threshold; pKd [23]: below the threshold; pKd [24]: below the threshold
